# Source: article PMC4333417 (Nucleic Acids Research, 2015)
# Like-named read-outs stand apart in the source and are kept apart here.
# T1: Tbis1 (Thermobispora bispora DSM 43833, UniProt D6YAC6 2-309)
# T1 sequence: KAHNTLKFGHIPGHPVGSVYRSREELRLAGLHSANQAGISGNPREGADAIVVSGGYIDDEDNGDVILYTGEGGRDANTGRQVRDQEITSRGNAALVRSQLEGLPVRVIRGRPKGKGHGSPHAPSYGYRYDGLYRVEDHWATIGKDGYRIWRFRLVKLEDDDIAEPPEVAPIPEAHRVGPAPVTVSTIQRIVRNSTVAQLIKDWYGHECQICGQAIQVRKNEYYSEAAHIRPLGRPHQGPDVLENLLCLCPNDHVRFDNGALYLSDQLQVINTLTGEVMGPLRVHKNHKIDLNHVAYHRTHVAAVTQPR
# T2: Sco5333 Y50A (Streptomyces coelicolor, UniProt Q9ADD4 1-301, Y50A)
# T2 sequence: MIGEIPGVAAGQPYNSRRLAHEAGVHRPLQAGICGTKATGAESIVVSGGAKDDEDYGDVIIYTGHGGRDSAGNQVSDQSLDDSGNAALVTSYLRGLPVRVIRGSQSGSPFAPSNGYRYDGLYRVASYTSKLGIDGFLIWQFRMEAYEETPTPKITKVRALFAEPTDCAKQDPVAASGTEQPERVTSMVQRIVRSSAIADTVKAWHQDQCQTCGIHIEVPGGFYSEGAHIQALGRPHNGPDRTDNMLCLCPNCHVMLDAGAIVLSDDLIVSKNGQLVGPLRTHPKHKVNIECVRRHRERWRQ
# T3: Sco5333 H253A (Streptomyces coelicolor, UniProt Q9ADD4 1-301, H253A)
# T3 sequence: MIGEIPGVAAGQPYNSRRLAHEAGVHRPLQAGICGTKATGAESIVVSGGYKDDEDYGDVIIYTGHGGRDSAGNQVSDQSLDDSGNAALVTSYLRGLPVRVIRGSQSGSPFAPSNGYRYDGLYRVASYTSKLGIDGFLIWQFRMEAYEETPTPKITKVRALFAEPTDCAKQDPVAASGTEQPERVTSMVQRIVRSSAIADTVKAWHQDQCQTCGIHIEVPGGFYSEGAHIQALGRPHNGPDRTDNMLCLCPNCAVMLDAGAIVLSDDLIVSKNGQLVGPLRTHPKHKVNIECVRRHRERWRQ
# T4: Sco5333 H228A (Streptomyces coelicolor, UniProt Q9ADD4 1-301, H228A)
# T4 sequence: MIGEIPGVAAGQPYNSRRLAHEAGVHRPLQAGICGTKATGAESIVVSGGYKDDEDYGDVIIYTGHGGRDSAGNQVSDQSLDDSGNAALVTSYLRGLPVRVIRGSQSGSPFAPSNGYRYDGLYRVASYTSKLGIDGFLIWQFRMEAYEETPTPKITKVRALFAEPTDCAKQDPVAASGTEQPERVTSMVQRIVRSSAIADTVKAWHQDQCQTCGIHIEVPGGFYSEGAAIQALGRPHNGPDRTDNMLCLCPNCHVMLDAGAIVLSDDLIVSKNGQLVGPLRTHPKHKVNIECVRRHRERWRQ
# T5: Sco5333 G32A (Streptomyces coelicolor, UniProt Q9ADD4 1-301, G32A)
# T5 sequence: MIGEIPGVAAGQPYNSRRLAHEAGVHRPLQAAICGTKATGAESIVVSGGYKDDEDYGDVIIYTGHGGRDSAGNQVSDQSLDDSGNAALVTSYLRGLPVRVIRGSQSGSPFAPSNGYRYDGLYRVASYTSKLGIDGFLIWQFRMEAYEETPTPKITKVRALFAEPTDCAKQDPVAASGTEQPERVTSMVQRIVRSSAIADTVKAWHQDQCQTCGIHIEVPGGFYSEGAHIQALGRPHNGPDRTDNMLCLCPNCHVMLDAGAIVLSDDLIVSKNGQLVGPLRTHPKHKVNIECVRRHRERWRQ
# T6: Sco5333 (Streptomyces coelicolor, UniProt Q9ADD4 1-301)
# T6 sequence: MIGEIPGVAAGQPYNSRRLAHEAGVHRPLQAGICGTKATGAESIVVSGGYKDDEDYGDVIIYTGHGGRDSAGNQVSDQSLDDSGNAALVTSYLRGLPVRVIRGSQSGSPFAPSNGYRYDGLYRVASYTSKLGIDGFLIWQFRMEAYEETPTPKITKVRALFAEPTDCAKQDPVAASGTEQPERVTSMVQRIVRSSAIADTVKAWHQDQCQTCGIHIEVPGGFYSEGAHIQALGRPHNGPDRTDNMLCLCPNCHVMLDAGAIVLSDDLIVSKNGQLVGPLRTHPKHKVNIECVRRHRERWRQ
# How the values were obtained:
# MBD of human MeCP2 [1] = target: T7, MBD of human MeCP2 (human, UniProt P51608 77-166); experiment: EMSA
# Tbis1 = target: T1, Tbis1; experiment: EMSA
# MBD of human MeCP2 [2] = target: T7, MBD of human MeCP2; experiment: EMSA; remark: listed apart in the source
# Sco5333 Y50A = target: T2, Sco5333 Y50A; experiment: EMSA
# Sco5333 H253A = target: T3, Sco5333 H253A; experiment: EMSA
# MBD of mouse MeCP2 = MBD of mouse MeCP2 (mouse, UniProt Q9Z2D6 77-165); experiment: EMSA
# Sco5333 H228A = target: T4, Sco5333 H228A; experiment: EMSA
# Sco5333 G32A = target: T5, Sco5333 G32A; experiment: EMSA
# Sco5333 [3] = target: T6, Sco5333; experiment: ITC
# Sco5333 [4] = target: T6, Sco5333; experiment: ITC; remark: listed apart in the source
# Sco5333 [5] = target: T6, Sco5333; experiment: ITC; remark: listed apart in the source
# MBD of mouse MeCP2, sequence (Q9Z2D6 77-165): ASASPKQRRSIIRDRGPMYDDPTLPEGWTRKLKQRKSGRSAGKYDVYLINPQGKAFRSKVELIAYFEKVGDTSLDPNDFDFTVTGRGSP
# T7 sequence (P51608 77-166): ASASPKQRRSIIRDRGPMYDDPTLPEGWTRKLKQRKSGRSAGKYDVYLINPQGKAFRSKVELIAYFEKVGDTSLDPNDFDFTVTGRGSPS
binder,measurement,setting,value
"66nt fully methylated (66nt-1/3) (dsDNA, 5mC at strand 1 pos 36 and strand 2 pos 30) DNA 1: AAAAACGGCGTTTCCGGGTTCCATAGGCTCCGCACCGGTCTCTGATGACCAGGGCATCACATTTTT DNA 2: AAAAATGTGATGCCCTGGTCATCAGAGACCGGTGCGGAGCCTATGGAACCCGGAAACGCCGTTTTT",binding signal,MBD of human MeCP2 [1],64 fold preference over non-methylated
same,binding signal,Tbis1,> 100 fold preference over non-methylated
66nt non-methylated (66nt-2/4) (dsDNA) DNA 1: AAAAACGGCGTTTCCGGGTTCCATAGGCTCCGCACCGGTCTCTGATGACCAGGGCATCACATTTTT DNA 2: AAAAATGTGATGCCCTGGTCATCAGAGACCGGTGCGGAGCCTATGGAACCCGGAAACGCCGTTTTT,binding signal,MBD of human MeCP2 [2],64 protein:DNA molar ratio for shift
"54nt fully methylated (54nt-1/3) (dsDNA, 5mC at strand 1 pos 27 and strand 2 pos 27) DNA 1: GAAACCCGACAGGACTATAAAGATACCGGCGTTTCCCCCTGGAAGCTCCCTCGT DNA 2: ACGAGGGAGCTTCCAGGGGGAAACGCCGGTATCTTTATAGTCCTGTCGGGTTTC",binding result,Sco5333 Y50A,no binding
same,binding result,Sco5333 H253A,binds
same,binding result,MBD of mouse MeCP2,binds
same,binding result,Sco5333 H228A,binds
same,binding result,Sco5333 G32A,no binding
same,Kd,Sco5333 [3],4.13 µM
"54nt top methylated (54nt-1/4) (dsDNA, 5mC at strand 1 pos 27) DNA 1: GAAACCCGACAGGACTATAAAGATACCGGCGTTTCCCCCTGGAAGCTCCCTCGT DNA 2: ACGAGGGAGCTTCCAGGGGGAAACGCCGGTATCTTTATAGTCCTGTCGGGTTTC",binding result,MBD of mouse MeCP2,no binding
same,Kd,Sco5333 [4],3.14 µM
"54nt bottom methylated (54nt-2/3) (dsDNA, 5mC at strand 2 pos 27) DNA 1: GAAACCCGACAGGACTATAAAGATACCGGCGTTTCCCCCTGGAAGCTCCCTCGT DNA 2: ACGAGGGAGCTTCCAGGGGGAAACGCCGGTATCTTTATAGTCCTGTCGGGTTTC",binding result,MBD of mouse MeCP2,no binding
same,Kd,Sco5333 [5],1.47 µM
